Results: publication PMC6432756

Columns and labels:
[1] = molecular target: D-allulose 3-epimerase from Staphylococcus aureus (Staphylococcus aureus); experiment: MALDI-TOF mass spectrometry; purified enzyme on HCCA matrix, acetonitrile-water 70:30 with 0.01% trifluoroacetic acid, linear mode
[2] = molecular target: D-allulose 3-epimerase from Staphylococcus aureus (Staphylococcus aureus); experiment: SEC; purified SaDAE on Superdex 200 Increase 10/300 GL, 20 mM Tris-HCl pH 8.0, 100 mM NaCl, 1 mM DTT; markers conalbumin (75.0 kDa) and aldolase (158.0 kDa)

stoichiometry N [1]: 4
stoichiometry N [2]: 4
Substance: D-allulose 3-epimerase from Staphylococcus aureus (enzyme)
